# Biological target: Turkey gizzard myosin, dephosphorylated (turkey)
# Assay: electron microscopy with streptavidin-gold labelling
substance,measurement,value
Turkey gizzard myosin biotinylated with NHS-LC-biotin (complex),percent of the filaments that contained gold particles after 24 h,> 95%
